Experimental data: paper PMC10698143, “Phosphorylation of MIF by PIP4K2a is necessary for cilia biogenesis” (Cell Death & Disease, 2023)

Biological target: T1, PIP4K2a on the HuProt human protein chip (human, UniProt P48426 1-406)
T1 construct: Phosphatidylinositol-5-phosphate 4-kinase type 2 alpha, human recombinant protein of the HuProt chip; construct not described; source: human recombinant protein, highly purified, spotted on the HuProt human protein chip
T1 sequence (looked up): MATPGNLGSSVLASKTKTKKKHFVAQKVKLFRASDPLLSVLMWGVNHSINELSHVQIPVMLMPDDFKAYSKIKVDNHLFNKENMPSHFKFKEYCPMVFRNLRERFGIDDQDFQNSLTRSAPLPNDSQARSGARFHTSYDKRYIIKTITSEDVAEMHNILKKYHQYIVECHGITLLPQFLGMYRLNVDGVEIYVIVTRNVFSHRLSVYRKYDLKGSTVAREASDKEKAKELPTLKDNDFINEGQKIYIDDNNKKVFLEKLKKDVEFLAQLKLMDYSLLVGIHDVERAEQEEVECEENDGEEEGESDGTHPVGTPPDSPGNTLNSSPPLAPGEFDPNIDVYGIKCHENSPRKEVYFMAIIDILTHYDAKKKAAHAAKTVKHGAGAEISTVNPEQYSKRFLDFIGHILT
Test: peptide or protein array; HuProt human protein chip (>21,000 purified human recombinant proteins on nitrocellulose-coated slides), renatured in 50 mM Tris-HCl pH 8.0, 100 mM NaCl, 1 mM DTT, 0.3% Tween 20, blocked with 5% BSA; probed with 50 nM purified human MIF for 1 h; detected with rabbit anti-MIF and Cy3 anti-rabbit IgG; hit if SNR of both duplicates over 1.2
Conditions: both partners purified

binding result: binds
B1: recombinant human MIF (rhMIF) (natural protein, UniProt P14174 1-115, looked up)
chain: MPMFIVNTNVPRASVPDGFLSELTQQLAQATGKPPQYIAVHVVPDQLMAFGGSSEPCALCSLHSIGKIGGAQNRSYSKLLCGLLAERLRISPDRVYINYYDMNAANVGWNNSTFA
notes: No catalogue number printed; also called purified human MIF protein; human recombinant MIF protein; source: bought: R&D Systems
